Results on six molecules are retold here after publication PMC6335420, “The cell cycle regulator GpsB functions as cytosolic adaptor for multiple cell wall enzymes” (Nature Communications, 2019).

The labels stand for the following.
B3: BsGpsB_(1-68) (domain or fragment, B. subtilis, UniProt P0CI74 1-68, looked up)
chain: MLADKVKLSAKEILEKEFKTGVRGYKQEDVDKFLDMIIKDYETFHQEIEELQQENLQLKKQLEEASKK
notes: GpsB, Bacillus subtilis, residues 1-68; also called N-terminal domain of BsGpsB; source: E. coli, purified (Ni-NTA, thrombin, size exclusion)

For test [1], the target named is T1, BsGpsB1-68 Tyr25Phe (B. subtilis, UniProt P0CI74 1-68, Tyr25Phe).
T1 construct: GpsB, Bacillus subtilis, residues 1-68 (N-terminal domain); also called BsGpsB1-68 Y25F; source: E. coli BL21(DE3), purified (Ni-NTA, thrombin removal of the His6-tag, SEC); not shown: His6, N-terminal, cleaved
T1 sequence (looked up): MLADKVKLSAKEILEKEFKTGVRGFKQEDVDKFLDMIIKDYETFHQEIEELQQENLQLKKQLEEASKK
Kind of test: fluorescence polarisation. The conditions noted are these: both partners purified. On the technique in general: Fluorescence polarisation rises when a labelled molecule tumbles more slowly, as on binding a larger partner.

Test [2] concerns the target T2, BsGpsB1-68 Asp31Ala (B. subtilis, UniProt P0CI74 1-68, Asp31Ala).
T2 construct: GpsB, Bacillus subtilis, residues 1-68 (N-terminal domain); also called BsGpsB1-68 D31A; source: E. coli BL21(DE3), purified (Ni-NTA, thrombin removal of the His6-tag, SEC); not shown: His6, N-terminal, cleaved
T2 sequence (looked up): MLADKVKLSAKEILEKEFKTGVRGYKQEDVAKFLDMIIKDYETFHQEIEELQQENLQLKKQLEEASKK
Put plainly: fluorescence polarisation. The conditions noted are these: both partners purified.

The target in test [3] is T3, BsGpsB1-68 (B. subtilis, UniProt P0CI74 1-68).
T3 construct: GpsB, Bacillus subtilis, residues 1-68 (N-terminal domain); also called N-terminal domain of B. subtilis GpsB; wildtype BsGpsB1-68; source: E. coli BL21(DE3), purified (Ni-NTA, thrombin removal of the His6-tag, SEC); not shown: His6, N-terminal, cleaved
T3 sequence (looked up): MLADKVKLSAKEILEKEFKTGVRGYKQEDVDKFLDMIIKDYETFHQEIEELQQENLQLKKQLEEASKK
Kind of test: fluorescence polarisation; GpsB protein titrated into TAMRA- or fluorescein-labelled peptide; 10 mM Tris.HCl pH 8.0, 250 mM NaCl, 0.1% reduced Triton X-100; all data fitted to a 1:1 interaction model, Kd ± standard error. The conditions noted are these: both partners purified.

Test [4] has as its target T4, BsGpsB1-68 Asp35Ala (B. subtilis, UniProt P0CI74 1-68, Asp35Ala).
T4 construct: GpsB, Bacillus subtilis, residues 1-68 (N-terminal domain); also called BsGpsB1-68 D35A; source: E. coli BL21(DE3), purified (Ni-NTA, thrombin removal of the His6-tag, SEC); not shown: His6, N-terminal, cleaved
T4 sequence (looked up): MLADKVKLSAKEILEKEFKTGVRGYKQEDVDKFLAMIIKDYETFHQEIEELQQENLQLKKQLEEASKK
The test is described as above. The conditions noted are these: both partners purified.

Test [5] concerns the target T5, BsGpsB1-68 Glu17Ala (B. subtilis, UniProt P0CI74 1-68, Glu17Ala).
T5 construct: GpsB, Bacillus subtilis, residues 1-68 (N-terminal domain); also called BsGpsB1-68 E17A; source: E. coli BL21(DE3), purified (Ni-NTA, thrombin removal of the His6-tag, SEC); not shown: His6, N-terminal, cleaved
T5 sequence (looked up): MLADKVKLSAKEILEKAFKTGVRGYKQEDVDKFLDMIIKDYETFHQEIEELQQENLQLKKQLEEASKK
Described as above. Particulars: both partners purified.

The target in test [6] is T1, BsGpsB1-68 Tyr25Phe. The description is as above. Particulars: both partners purified.
Test [7] addresses T6, BsGpsB (B. subtilis, UniProt P0CI74 1-98).
T6 construct: GpsB, Bacillus subtilis, full-length protein; purification not described here; also called full-length B. subtilis GpsB
T6 sequence (looked up): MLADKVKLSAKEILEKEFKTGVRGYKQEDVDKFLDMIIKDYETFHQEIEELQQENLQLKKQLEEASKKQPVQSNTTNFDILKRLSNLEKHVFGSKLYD
The test is described as above. Particulars: both partners purified.

Test [8] has as its target T2, BsGpsB1-68 Asp31Ala. Described as above. Particulars: both partners purified.
For test [9], the target named is LmPBPA1_(1-20)^Arg12Ala (L. monocytogenes EGD-e). Kind of test: fluorescence polarisation.
The target of test [10] is Q10P-mutated LmPBPA1 peptide (taken as LmPBPA1_(1-20)^Gln10Pro) (L. monocytogenes EGD-e). Kind of test: fluorescence polarisation.
Test [11] addresses LmPBPA1_(1-20)^Arg8Ala (L. monocytogenes EGD-e). Kind of test: fluorescence polarisation.
In test [12] the target is LmPBPA1_(1-20)^Arg8Ala,Ser16Arg (L. monocytogenes EGD-e). Kind of test: fluorescence polarisation.
In test [13] the target is LmPBPA1_(1-20)^Tyr11Ala (L. monocytogenes EGD-e). Kind of test: fluorescence polarisation.
Test [14] addresses T7, BsPBP1_(1-32)^Ser7Ala, TAMRA-labelled at position 16 (B. subtilis, UniProt P39793 1-32, Ser16Cys | Ser7Ala, TAMRA (maleimide) at position 16).
T7 construct: PBP1, Bacillus subtilis, residues 1-32; source: E. coli, His-tagged MBP fusion purified (Ni-NTA), labelled, TEV-cleaved, ultrafiltration
T7 peptide (looked up): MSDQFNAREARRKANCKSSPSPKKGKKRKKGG
Kind of test: fluorescence polarisation; GpsB protein titrated into fluorescently labelled peptide; 10 mM Tris.HCl pH 8.0, 250 mM NaCl, 0.1% reduced Triton X-100; fit to a 1:1 interaction model. The conditions noted are these: both partners purified.

Test [15] deals with T8, BsPBP1_(1-32)^Arg11Ala, TAMRA-labelled at position 16 (B. subtilis, UniProt P39793 1-32, Ser16Cys | Arg11Ala, TAMRA (maleimide) at position 16).
T8 construct: PBP1, Bacillus subtilis, residues 1-32; also called BsPBP1^Arg11Ala; source: E. coli, His-tagged MBP fusion purified (Ni-NTA), labelled, TEV-cleaved, ultrafiltration
T8 peptide (looked up): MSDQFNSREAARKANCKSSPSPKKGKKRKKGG
Described as above. The conditions noted are these: both partners purified.

Test [16] deals with T9, BsPBP1_(1-32)^Arg8Lys, TAMRA-labelled at position 16 (B. subtilis, UniProt P39793 1-32, Ser16Cys | Arg8Lys, TAMRA (maleimide) at position 16).
T9 construct: PBP1, Bacillus subtilis, residues 1-32; also called BsPBP1^Arg8Lys; source: E. coli, His-tagged MBP fusion purified (Ni-NTA), labelled, TEV-cleaved, ultrafiltration
T9 peptide (looked up): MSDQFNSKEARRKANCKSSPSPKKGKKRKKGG
The test is described as above. The conditions noted are these: both partners purified.

The target of test [17] is T10, BsPBP1_(1-32)^Arg8Ala, TAMRA-labelled at position 16 (B. subtilis, UniProt P39793 1-32, Ser16Cys | Arg8Ala, TAMRA (maleimide) at position 16).
T10 construct: PBP1, Bacillus subtilis, residues 1-32; also called BsPBP1^Arg8Ala; source: E. coli, His-tagged MBP fusion purified (Ni-NTA), labelled, TEV-cleaved, ultrafiltration
T10 peptide (looked up): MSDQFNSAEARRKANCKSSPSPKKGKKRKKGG
The test is described as above. Particulars: both partners purified.

Test [18] addresses T11, BsPBP1_(1-32)^Ala10Pro, TAMRA-labelled at position 16 (B. subtilis, UniProt P39793 1-32, Ser16Cys | Ala10Pro, TAMRA (maleimide) at position 16).
T11 construct: PBP1, Bacillus subtilis, residues 1-32; source: E. coli, His-tagged MBP fusion purified (Ni-NTA), labelled, TEV-cleaved, ultrafiltration
T11 peptide (looked up): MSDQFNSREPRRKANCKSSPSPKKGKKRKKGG
The test is described as above. The conditions noted are these: both partners purified.

The target in test [19] is B3. Put plainly: fluorescence polarisation. Particulars: both partners purified.
Test [20] addresses T12, BsGpsB_(5-64) (B. subtilis 168, UniProt P0CI74 5-64).
T12 construct: GpsB, Bacillus subtilis 168, residues 5-64; two molecules in the asymmetric unit; also called N-terminal domain of BsGpsB, termini truncated; source: E. coli, purified (Ni-NTA, TEV, Superdex 75); not shown: His6, N-terminal, cleaved
T12 sequence (looked up): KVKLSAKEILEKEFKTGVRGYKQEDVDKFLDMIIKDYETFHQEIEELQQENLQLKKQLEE
Put plainly: crystal structure; co-crystallisation of GpsB N-terminal domain with PBP peptide, 1:5 molar ratio protein:peptide, room temperature. The conditions noted are these: both partners purified.

Non-standard residues stand in square brackets, D forms with d. No end group written: not given here. fluorescein = fluorescein fluorescent label on the N-terminus; Nle = CCCC[C@H](N)C(=O)O

On to fluorescein-[Nle]TN[Nle]SRVERRKAQNLYEDQNA [Fluoroescein-BsYpbE1-21], for which the Kd in test [1] and in test [2] was over 500 µM each time.

B1: TAMRA-BsPBP11-32 wildtype (peptide)
peptide: GSMADQFNSREARRKANC(TAMRA‑maleimide)KSSPSPKKGKKRKKGG
notes: PBP1 (ponA), Bacillus subtilis, residues 1-32, cytoplasmic mini-domain; also called TAMRA-labelled BsPBP1 1-32 (Ser16Cys); 16-labelled peptide
Take B1: the Kd (commonly the constant that tells how readily two partners part at equilibrium) in test [3] was 120 µM; in test [4], over 2000 µM; in [5] it was over 1300 µM; in [6], over 2000 µM; in test [7], 160 µM; in [8] it was over 1900 µM.

B2: BsGpsB_(1-68)^Lys32Glu (domain or fragment)
chain: MLADKVKLSAKEILEKEFKTGVRGYKQEDVDEFLDMIIKDYETFHQEIEELQQENLQLKKQLEEASKK
For the molecule B2, the fold reduction in affinity against wild type was 4 fold in test [9], over 7 fold in test [10], over 15 fold in test [11] and 2 fold in test [13]. The same molecule displayed a fold weaker affinity than wild type in test [12] of over 10 fold.
As for B3, the “fold reduction in affinity against wild type” value in test [14] is at least 6 fold; in test [15], at least 5 fold; in test [16], at least 5 fold; in [17], at least 5 fold; in test [18], at least 6 fold.

B4: BsYpbE_(1-21), fluorescein-labelled (peptide)
peptide: MTNMSRVERRKAQNLYEDQNA
modifications: also: fluorescein label, position not given here
notes: also called 21-residue fragment of the cytoplasmic domain of BsYpbE; source: synthetic peptide
B4 registered a Kd in test [19] of 13 µM.

B5: BsPBP1_(1-17) (peptide, UniProt P39793 1-17, looked up)
peptide: MSDQFNSREARRKANSK
notes: PBP1, Bacillus subtilis, residues 1-17; also called first 17 amino acids of BsPBP1; source: synthetic peptide
As to B5, the binding result in [20] is “binds”.
